“And” between values parts separate entries of the source, which are not always exact repeats. Equal values may be shown once.

One may read the Km as the concentration of substrate that gives half-maximal velocity.

This series relates to O=P(O)(O)O[C@H]1O[C@H](CO)[C@@H](O)[C@H](O)[C@H]1O. The experiment in a line: YidA phosphatase activity (malachite green), dephosphorylation of Glc-1-P. Format: biochemical, Salmonella typhimurium. From the text:
The sugar phosphate phosphatase produced from an engineered cell can be identical to a naturally occurring one, such as YidA or YihX, but placed within a cell in which it is not naturally produced. Examples of this approach are given throughout. The sequence for YidA from Salmonella typhimurium can be found, for example, in NC_492731.1. This sequence corresponds to SEQ ID NO: 1. The gene ID is 1255358. The sequence for YihX from Salmonella typhimurium can be found, for example, in NC_462906.1. This corresponds to SEQ ID NO: 2. The gene ID is 1255552. In one example, genes encoding these proteins can be placed within a cell in which it is not naturally occurring.
Nearly homogeneous recombinant Salmonella YidA by overexpressing it in E. coli SixPack cells were obtained (Lipinszki et al. 2018) (FIG. 3A). N-terminal fusions with a small ubiquitin-like modifier (SUMO) domain were engineered to enhance solubility (Marblestone et al. 2006) and a His6 tag to facilitate affinity purification (FIG. 3A). […] Since YidA is a Mg^2+-dependent phosphatase, its activity with Glc-1-P in the presence of 0-5 mM MgCl2 was first tested and determined that 3 mM MgCl2 was optimal (FIG. 5). […]

Regarding “Salmonella typhimurium YidA, recombinant wild type, SEQ ID NO: 1 (Salmonella enterica subsp. enterica serovar Typhimurium str. LT2)”, the Michaelis-Menten constant (Km) (other: mean ± SE of two independent trials, pH 8.0) is 1340 ± 20 µM and 1350 ± 10 µM; the Michaelis-Menten constant (Km) (other: single trials, ± curve-fit error, pH 8, 37° C., 3 mM MgCl2, 37.0 °C) is 1340 ± 300 µM and 1350 ± 300 µM.

The values are drawn from patent US20240247301A1, “DIAGNOSTIC ASSAY FOR CLASSIC INBORN GALACTOSEMIA” (Ohio State Innovation Foundation, priority 2022, published 2024).
